Results: article PMC10920655, “Identification and characterization of CIM-1, a carbapenemase that adds to the family of resistance factors against last resort antibiotics” (Communications Biology, 2024)
≈ marks a conversion by molar mass, not a printed value.

Experiments:
[1] = tested on: CC(C)(O/N=C(\C(=O)N[C@@H]1C(=O)N2C(C(=O)[O-])=C(C[n+]3ccccc3)CS[C@H]12)c1csc(N)n1)C(=O)O; assay: purified protein; settings: 50 mM HEPES pH 7.0, 10 μM ZnSO4, 25 ± 2 °C, 100 nM enzyme, 25.0 °C
[2] = tested on: CO/N=C(\C(=O)N[C@@H]1C(=O)N2C(C(=O)[O-])=C(C[N+]3(C)CCCC3)CS[C@H]12)c1csc(N)n1; assay: purified protein; settings: 50 mM HEPES pH 7.0, 10 μM ZnSO4, 25 ± 2 °C, 100 nM enzyme, 25.0 °C
[3] = tested on: C[C@@H](O)[C@H]1C(=O)N2C(C(=O)O)=C(SCCN=CN)C[C@H]12; assay: purified protein; settings: 50 mM HEPES pH 7.0, 10 μM ZnSO4, 25 ± 2 °C, 100 nM enzyme, 25.0 °C
[4] = tested on: C[C@@H](O)[C@H]1C(=O)N2C(C(=O)O)=C(S[C@@H]3CN[C@H](C(=O)N(C)C)C3)[C@H](C)[C@H]12; assay: purified protein; settings: 50 mM HEPES pH 7.0, 10 μM ZnSO4, 25 ± 2 °C, 100 nM enzyme, 25.0 °C
[5] = tested on: C[C@@H](O)[C@H]1C(=O)N2C(C(=O)O)=C(S[C@@H]3CN[C@H](C(=O)Nc4cccc(C(=O)O)c4)C3)[C@H](C)[C@H]12; assay: purified protein; settings: 50 mM HEPES pH 7.0, 10 μM ZnSO4, 25 ± 2 °C, 100 nM enzyme, 25.0 °C
[6] = tested on: C[C@@H](O)[C@H]1C(=O)N2C(C(=O)O)=C(S[C@@H]3CN[C@H](CNS(N)(=O)=O)C3)[C@H](C)[C@H]12; assay: purified protein; settings: 50 mM HEPES pH 7.0, 10 μM ZnSO4, 25 ± 2 °C, 100 nM enzyme, 25.0 °C
Excerpt: steady-state hydrolysis, UV absorbance, plate reader on CIM-1ΔSig

[7] = tested on: O=C(Cc1cccs1)N[C@@H]1C(=O)N2C(C(=O)O)=C(/C=C/c3ccc([N+](=O)[O-])cc3[N+](=O)[O-])CS[C@H]12; assay: purified protein; settings: 50 mM HEPES pH 7.0, 10 μM ZnSO4, 25 ± 2 °C, 100 nM enzyme, 25.0 °C
[8] = tested on: T1, C. indologenes #3362; assay: microbe, parasite or virus in culture; parameters: species or system C. indologenes 3362; E. coli C41(DE3); Broth microdilution MIC, ISO 20776-1/EUCAST, cation-adjusted Mueller Hinton broth, after IPTG induction; settings: Chryseobacterium indologenes; native isolate carrying IND-2 and CIM-1
T1 construct: 3362
Protocol: (§1) The in vitro minimum inhibitory concentration (MIC) of β-lactams including penicillins, cephalosporins, and carbapenems in C. indologenes 3362 and E. coli C41(DE3) carrying different constructs were determined using the broth microdilution assay according to the International Standard ISO 20776-1 as recommended by EUCAST (the European Committee on Antimicrobial Susceptibility Testing). Briefly, bacterial cultures were grown aerobically at 37 °C to an OD600 0.4–0.6 in the presence of 25 μg/mL kanamycin, when necessary, before 1 mM IPTG (isopropyl-β-d-thiogalactopyranoside) was added. The induction was allowed for 2 h at 37 °C before the bacterial culture was diluted to 4 × 10^6 CFU/mL, and the microbroth dilution assays were performed. Cation-adjusted Mueller Hinton (CAMH) broth was used. All assays were repeated at least four times on four different days with different batches of cells.

[9] = tested on: T2, E. coli C41(DE3) with pET41a(+); assay: microbe, parasite or virus in culture; parameters: species or system C. indologenes 3362; E. coli C41(DE3); Broth microdilution MIC, ISO 20776-1/EUCAST, cation-adjusted Mueller Hinton broth, after IPTG induction; settings: Escherichia coli; empty vector pET41a(+), IPTG induced
T2 construct: C41(DE3) empty vector pET41a(+), control
Protocol: as §1

[10] = tested on: C[C@@H](O)[C@H]1C(=O)N2C(C(=O)O)=C(S[C@@H]3CN[C@H](C(=O)Nc4cccc(C(=O)O)c4)C3)[C@H](C)[C@H]12; assay: steady-state hydrolysis, UV absorbance, plate reader; type: biochemical, Klebsiella pneumoniae; settings: 50 mM HEPES pH 7.0, 10 μM ZnSO4, 25 ± 2 °C, 100 nM enzyme, 25.0 °C
Excerpt: (§2) steady-state hydrolysis, UV absorbance, plate reader on NDM-4ΔSig

[11] = tested on: C[C@@H](O)[C@H]1C(=O)N2C(C(=O)O)=C(S[C@@H]3CN[C@H](CNS(N)(=O)=O)C3)[C@H](C)[C@H]12; assay: as above; type: biochemical, Klebsiella pneumoniae; settings: 50 mM HEPES pH 7.0, 10 μM ZnSO4, 25 ± 2 °C, 100 nM enzyme, 25.0 °C
Excerpt: as §2

[12] = tested on: CC(C)(O/N=C(\C(=O)N[C@@H]1C(=O)N2C(C(=O)[O-])=C(C[n+]3ccccc3)CS[C@H]12)c1csc(N)n1)C(=O)O; assay: purified protein; type: biochemical, Klebsiella pneumoniae; settings: 50 mM HEPES pH 7.0, 10 μM ZnSO4, 25 ± 2 °C, 100 nM enzyme, 25.0 °C
[13] = tested on: CO/N=C(\C(=O)N[C@@H]1C(=O)N2C(C(=O)[O-])=C(C[N+]3(C)CCCC3)CS[C@H]12)c1csc(N)n1; assay: purified protein; type: biochemical, Klebsiella pneumoniae; settings: 50 mM HEPES pH 7.0, 10 μM ZnSO4, 25 ± 2 °C, 100 nM enzyme, 25.0 °C
[14] = tested on: C[C@@H](O)[C@H]1C(=O)N2C(C(=O)O)=C(SCCN=CN)C[C@H]12; assay: purified protein; type: biochemical, Klebsiella pneumoniae; settings: 50 mM HEPES pH 7.0, 10 μM ZnSO4, 25 ± 2 °C, 100 nM enzyme, 25.0 °C
[15] = tested on: C[C@@H](O)[C@H]1C(=O)N2C(C(=O)O)=C(S[C@@H]3CN[C@H](C(=O)N(C)C)C3)[C@H](C)[C@H]12; assay: purified protein; type: biochemical, Klebsiella pneumoniae; settings: 50 mM HEPES pH 7.0, 10 μM ZnSO4, 25 ± 2 °C, 100 nM enzyme, 25.0 °C
[16] = target: T3, IND-2ΔSig (Chryseobacterium indologenes, UniProt Q9ETN2); assay: steady-state hydrolysis, UV absorbance, plate reader; settings: read-out: Km (μM) / IND-2ΔSig; 50 mM HEPES pH 7.0, 10 μM ZnSO4, 25 ± 2 °C, 100 nM enzyme
T3 construct: gene blaIND-2b
T3 sequence (Q9ETN2 entry or part of it, stated change not applied): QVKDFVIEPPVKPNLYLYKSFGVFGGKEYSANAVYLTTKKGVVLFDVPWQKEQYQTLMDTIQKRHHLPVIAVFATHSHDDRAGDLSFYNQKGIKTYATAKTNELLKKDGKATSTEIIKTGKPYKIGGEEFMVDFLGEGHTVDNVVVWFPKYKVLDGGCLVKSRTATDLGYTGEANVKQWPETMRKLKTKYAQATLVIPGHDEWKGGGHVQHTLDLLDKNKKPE

[17] = target: T3, IND-2ΔSig; assay: steady-state hydrolysis, UV absorbance […] nm, plate reader; type: biochemical; settings: read-out: Km (μM) / IND-2ΔSig; 50 mM HEPES pH 7.0, 10 μM ZnSO4, 25 ± 2 °C, 100 nM enzyme
[18] = target: T3, IND-2ΔSig; assay: steady-state hydrolysis, UV absorbance […] or […] nm, plate reader; settings: read-out: Km (μM) / IND-2ΔSig; 50 mM HEPES pH 7.0, 10 μM ZnSO4, 25 ± 2 °C, 100 nM enzyme
[19] = target: T4, NDM-4ΔSig (Klebsiella pneumoniae, UniProt C7C422, M154L); assay: steady-state hydrolysis, absorbance […] nm, plate reader; type: biochemical; settings: read-out: Km (μM) / NDM-4ΔSig; 50 mM HEPES pH 7.0, 10 μM ZnSO4, 25 ± 2 °C, 100 nM enzyme
T4 construct: gene blaNDM-1
T4 sequence (C7C422 26-270 M154L): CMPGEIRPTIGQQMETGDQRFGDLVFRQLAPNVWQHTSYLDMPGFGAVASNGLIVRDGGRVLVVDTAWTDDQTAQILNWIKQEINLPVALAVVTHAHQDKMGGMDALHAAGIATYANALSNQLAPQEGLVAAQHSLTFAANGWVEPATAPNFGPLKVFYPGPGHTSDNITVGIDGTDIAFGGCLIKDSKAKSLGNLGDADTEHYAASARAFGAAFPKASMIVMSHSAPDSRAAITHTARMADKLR

CIM-1ΔSig (Chryseobacterium indologenes)
Km [1]: 324 ± 42 µM
kcat [1]: 30 s⁻¹
kcat/Km [1]: 93000 M⁻¹ s⁻¹
Km [2]: 538 ± 56 µM
kcat [2]: 15.3 s⁻¹
kcat/Km [2]: 28000 M⁻¹ s⁻¹
Km [3]: 94 ± 7 µM
kcat [3]: 8.5 s⁻¹
kcat/Km [3]: 90000 M⁻¹ s⁻¹
Km [4]: 143 ± 19 µM
kcat [4]: 15 s⁻¹
kcat/Km [4]: 100000 M⁻¹ s⁻¹
Km [5]: 91 ± 11 µM
kcat [5]: 9.2 s⁻¹
kcat/Km [5]: 100000 M⁻¹ s⁻¹
Km [6]: 175 ± 24 µM
kcat [6]: 21 s⁻¹
kcat/Km [6]: 120000 M⁻¹ s⁻¹
Km [7]: 33 ± 6 µM
kcat [7]: 2.8 s⁻¹
kcat/Km [7]: 85000 M⁻¹ s⁻¹

CC1(C)S[C@@H]2[C@H](NC(=O)[C@H](N)c3ccccc3)C(=O)N2[C@H]1C(=O)O [Ampicillin]
MIC [8]: 512 µg/mL (≈ 1470 µM)
MIC [9]: 4 µg/mL (≈ 11.4 µM)

NDM-4ΔSig (Klebsiella pneumoniae; M154L)
Km [10]: 159 ± 22 µM
kcat [10]: 17 s⁻¹
kcat/Km [10]: 110000 M⁻¹ s⁻¹
Km [11]: 253 ± 19 µM
kcat [11]: 51 s⁻¹
kcat/Km [11]: 200000 M⁻¹ s⁻¹
Km [12]: 93 ± 14 µM
kcat [12]: 6.3 s⁻¹
kcat/Km [12]: 68000 M⁻¹ s⁻¹
Km [13]: 136 ± 16 µM
kcat [13]: 5.4 s⁻¹
kcat/Km [13]: 40000 M⁻¹ s⁻¹
Km [14]: 151 ± 22 µM
kcat [14]: 31 s⁻¹
kcat/Km [14]: 210000 M⁻¹ s⁻¹
Km [15]: 163 ± 22 µM
kcat [15]: 25 s⁻¹
kcat/Km [15]: 150000 M⁻¹ s⁻¹

C[C@@H](O)[C@H]1C(=O)N2C(C(=O)O)=C(S[C@@H]3CN[C@H](CNS(N)(=O)=O)C3)[C@H](C)[C@H]12 [Doripenem]
MIC [8]: 128 µg/mL (≈ 304 µM)
MIC [9]: 0.063 µg/mL (≈ 0.15 µM)
Km [16]: > 1000 µM

C[C@@H](O)[C@H]1C(=O)N2C(C(=O)O)=C(SCCN=CN)C[C@H]12 [Imipenem]
MIC [8]: 128 µg/mL (≈ 428 µM)
MIC [9]: 0.5 µg/mL (≈ 1.67 µM)

CC(C)(O/N=C(\C(=O)N[C@@H]1C(=O)N2C(C(=O)[O-])=C(C[n+]3ccccc3)CS[C@H]12)c1csc(N)n1)C(=O)O [Ceftazidime]
Km [17]: > 1000 µM
MIC [8]: 16 µg/mL (≈ 29.3 µM)
MIC [9]: 0.125 µg/mL (≈ 0.229 µM)

CO/N=C(\C(=O)N[C@@H]1C(=O)N2C(C(=O)[O-])=C(C[N+]3(C)CCCC3)CS[C@H]12)c1csc(N)n1 [Cefepime]
MIC [8]: 2 µg/mL (≈ 4.16 µM)
MIC [9]: 0.031 µg/mL (≈ 0.0645 µM)

C[C@@H](O)[C@H]1C(=O)N2C(C(=O)O)=C(S[C@@H]3CN[C@H](C(=O)N(C)C)C3)[C@H](C)[C@H]12 [Meropenem]
MIC [8]: 128 µg/mL (≈ 334 µM)
MIC [9]: 0.031 µg/mL (≈ 0.0808 µM)
Km [18]: > 1000 µM

C[C@H]1[C@H](NC(=O)/C(=N\OC(C)(C)C(=O)O)c2csc(N)n2)C(=O)N1S(=O)(=O)O [Aztreonam]
MIC [8]: > 512 µg/mL
MIC [9]: < 0.02 µg/mL

IND-2ΔSig (Chryseobacterium indologenes)
Km [3]: 728 ± 102 µM
kcat [3]: 208 s⁻¹
kcat/Km [3]: 290000 M⁻¹ s⁻¹
Km [5]: 1069 ± 105 µM
kcat [5]: 127 s⁻¹
kcat/Km [5]: 120000 M⁻¹ s⁻¹
Km [7]: 113 ± 6.9 µM
kcat [7]: 78 s⁻¹
kcat/Km [7]: 680000 M⁻¹ s⁻¹

C[C@@H](O)[C@H]1C(=O)N2C(C(=O)O)=C(S[C@@H]3CN[C@H](C(=O)Nc4cccc(C(=O)O)c4)C3)[C@H](C)[C@H]12 [Ertapenem]
MIC [8]: 64 µg/mL (≈ 135 µM)
MIC [9]: 0.016 µg/mL (≈ 0.0336 µM)

CO[C@@]1(NC(=O)Cc2cccs2)C(=O)N2C(C(=O)O)=C(COC(N)=O)CS[C@@H]21 [*Cefoxitin (2nd)]
MIC [8]: 32 µg/mL (≈ 74.9 µM)
MIC [9]: 0.5 µg/mL (≈ 1.17 µM)

O=C(Cc1cccs1)N[C@@H]1C(=O)N2C(C(=O)O)=C(/C=C/c3ccc([N+](=O)[O-])cc3[N+](=O)[O-])CS[C@H]12 [Nitrocefin]
Km [19]: 11 ± 1.8 µM

Cc1nnc(SCC2=C(C(=O)O)N3C(=O)[C@@H](NC(=O)Cn4cnnn4)[C@H]3SC2)s1 [*Cefazolin (1st)]
MIC [8]: 256 µg/mL (≈ 563 µM)
MIC [9]: 2 µg/mL (≈ 4.4 µM)
